Here are results for 28 molecules from patent publication US20250011363A1, “OPTIMIZED SHORTENED PEPTIDE THAT BINDS TO ACETYLCHOLINE RECEPTOR, AND USE THEREOF” (SKINMED CO., LTD., priority 2021, published 2025).

For the assay, the target named is acetylcholine receptor. Nature of the assay: SPR, peptide at 10 uM, acetylcholine receptor immobilized on chip.

For the molecule RKPKR [5mer-622], the Binding affinity (RU) worked out at 22 RU. For KFCPR [5mer-616] the value was 15 RU; for REHGK [5mer-911], 14 RU; for RAEFR [5mer-613], 20 RU.

Molecule KPKIK [5mer-920] came in with a Binding affinity (RU) of 15 RU. As for KHTFK [5mer-913], the Binding affinity (RU) amounted to 13 RU. For the molecule KEHER [5mer-624], the Binding affinity (RU) is 22 RU.

For RPTMR [5mer-914], the Binding affinity (RU) is 26 RU. For KKMGR [5mer-912], the Binding affinity (RU) was 16 RU.

Regarding KCWMK [5mer-923], the Binding affinity (RU) was found to be 19 RU. KCCNR [5mer-615]: the Binding affinity (RU) worked out at 20 RU. Consider KNNIK [5mer-919], for which the Binding affinity (RU) stood at 32 RU. In the case of KKKFK [5mer-921], the Binding affinity (RU) was 21 RU. RCHER [5mer-916] displayed a Binding affinity (RU) of 12 RU. In the case of RNTWK [5mer-614], the Binding affinity (RU) is 29 RU. The molecule KCTDK [5mer-612] registered a Binding affinity (RU) of 23 RU.

Take RNEKK [5mer-924]: the Binding affinity (RU) is 27 RU.

Turning to RNNVR [5mer-918], the Binding affinity (RU) stood at 12 RU. For KMCDR [5mer-625] the value was 33 RU; for KNTGR [5mer-623], 19 RU; for RMSWK [5mer-618], 19 RU. With RMWKR [5mer-922], the Binding affinity (RU) is 14 RU. KCSFK [5mer-619] displayed a Binding affinity (RU) of 19 RU. The molecule RCMHK [5mer-620] registered a Binding affinity (RU) of 23 RU. With KMTHR [5mer-915] the figure was 28 RU; with KCAPR [5mer-917], 11 RU; with KKSMK [5mer-621], 13 RU. Molecule RYCAK [5mer-617] returned a Binding affinity (RU) of 28 RU.
